Square brackets hold non-standard residues; d marks the D form. Ends that are not written are not given here. pS = N[C@@H](COP(=O)(O)O)C(=O)O
B1: fluorescently labeled phosphopeptide VNKpSYFND-fluorescein (peptide)
peptide: VNK[pS]YFND-fluorescein

Assays:
[1] = molecular target: B1; experiment: fluorescence polarisation
[2] = molecular target: BRCA1 BRCT domains, wild type (residues 1646-1863) (UniProt P38398 1646-1863); experiment: fluorescence polarisation

| Binder | fold reduction in affinity against wild type [1] [fold] | other results |
| --- | --- | --- |
| BRCA1 BRCT A1843P (domain or fragment, UniProt P38398 1646-1863, looked up) VNKRMSMVVSGLTPEEFMLVYKFARKHHITLTNLITEETTHVVMKTDAEFVCERTLKYFLGIAGGKWVVSYFWVTQSIKERKMLNEHDFEVRGDVVNGRNHQGPKRARESQDRKIFRGLEICCYGPFTNMPTDQLEWMVQLCGASVVKELSSFTLGTGVHPIVVVQPDAWTEDNGFHAIGQMCEAPVVTREWVLDSVPLYQCQELDTYLIPQIPHSHY | ≤ 1.5 |  |
| BRCA1 BRCT R1699L (domain or fragment, UniProt P38398 1646-1863, looked up) VNKRMSMVVSGLTPEEFMLVYKFARKHHITLTNLITEETTHVVMKTDAEFVCELTLKYFLGIAGGKWVVSYFWVTQSIKERKMLNEHDFEVRGDVVNGRNHQGPKRARESQDRKIFRGLEICCYGPFTNMPTDQLEWMVQLCGASVVKELSSFTLGTGVHPIVVVQPDAWTEDNGFHAIGQMCEAPVVTREWVLDSVALYQCQELDTYLIPQIPHSHY | ~100 |  |
| BRCA1 BRCT V1808A (domain or fragment, UniProt P38398 1646-1863, looked up) VNKRMSMVVSGLTPEEFMLVYKFARKHHITLTNLITEETTHVVMKTDAEFVCERTLKYFLGIAGGKWVVSYFWVTQSIKERKMLNEHDFEVRGDVVNGRNHQGPKRARESQDRKIFRGLEICCYGPFTNMPTDQLEWMVQLCGASVVKELSSFTLGTGVHPIAVVQPDAWTEDNGFHAIGQMCEAPVVTREWVLDSVALYQCQELDTYLIPQIPHSHY | ≤ 1.5 |  |
| BRCA1 BRCT M1775R (domain or fragment, UniProt P38398 1646-1863, looked up) VNKRMSMVVSGLTPEEFMLVYKFARKHHITLTNLITEETTHVVMKTDAEFVCERTLKYFLGIAGGKWVVSYFWVTQSIKERKMLNEHDFEVRGDVVNGRNHQGPKRARESQDRKIFRGLEICCYGPFTNRPTDQLEWMVQLCGASVVKELSSFTLGTGVHPIVVVQPDAWTEDNGFHAIGQMCEAPVVTREWVLDSVALYQCQELDTYLIPQIPHSHY | ~1.4 |  |
| BRCA1 BRCT V1665M (domain or fragment, UniProt P38398 1646-1863, looked up) VNKRMSMVVSGLTPEEFMLMYKFARKHHITLTNLITEETTHVVMKTDAEFVCERTLKYFLGIAGGKWVVSYFWVTQSIKERKMLNEHDFEVRGDVVNGRNHQGPKRARESQDRKIFRGLEICCYGPFTNMPTDQLEWMVQLCGASVVKELSSFTLGTGVHPIVVVQPDAWTEDNGFHAIGQMCEAPVVTREWVLDSVALYQCQELDTYLIPQIPHSHY | ~1.4 |  |
| B1 |  | Kd [2]: 0.112 ± 0.006 µM |
| BRCA1 BRCT T1773S (domain or fragment, UniProt P38398 1646-1863, looked up) VNKRMSMVVSGLTPEEFMLVYKFARKHHITLTNLITEETTHVVMKTDAEFVCERTLKYFLGIAGGKWVVSYFWVTQSIKERKMLNEHDFEVRGDVVNGRNHQGPKRARESQDRKIFRGLEICCYGPFSNMPTDQLEWMVQLCGASVVKELSSFTLGTGVHPIVVVQPDAWTEDNGFHAIGQMCEAPVVTREWVLDSVALYQCQELDTYLIPQIPHSHY | ~1.4 |  |
| BRCA1 BRCT M1783T (domain or fragment, UniProt P38398 1646-1863, looked up) VNKRMSMVVSGLTPEEFMLVYKFARKHHITLTNLITEETTHVVMKTDAEFVCERTLKYFLGIAGGKWVVSYFWVTQSIKERKMLNEHDFEVRGDVVNGRNHQGPKRARESQDRKIFRGLEICCYGPFTNMPTDQLEWTVQLCGASVVKELSSFTLGTGVHPIVVVQPDAWTEDNGFHAIGQMCEAPVVTREWVLDSVALYQCQELDTYLIPQIPHSHY | ≤ 1.5 |  |
| BRCA1 BRCT R1699Q (domain or fragment, UniProt P38398 1646-1863, looked up) VNKRMSMVVSGLTPEEFMLVYKFARKHHITLTNLITEETTHVVMKTDAEFVCEQTLKYFLGIAGGKWVVSYFWVTQSIKERKMLNEHDFEVRGDVVNGRNHQGPKRARESQDRKIFRGLEICCYGPFTNMPTDQLEWMVQLCGASVVKELSSFTLGTGVHPIVVVQPDAWTEDNGFHAIGQMCEAPVVTREWVLDSVALYQCQELDTYLIPQIPHSHY | ~100 |  |
| BRCA1 BRCT R1751Q (domain or fragment, UniProt P38398 1646-1863, looked up) VNKRMSMVVSGLTPEEFMLVYKFARKHHITLTNLITEETTHVVMKTDAEFVCERTLKYFLGIAGGKWVVSYFWVTQSIKERKMLNEHDFEVRGDVVNGRNHQGPKQARESQDRKIFRGLEICCYGPFTNMPTDQLEWMVQLCGASVVKELSSFTLGTGVHPIVVVQPDAWTEDNGFHAIGQMCEAPVVTREWVLDSVALYQCQELDTYLIPQIPHSHY | ~1.4 |  |
| BRCA1 BRCT G1788D (domain or fragment, UniProt P38398 1646-1863, looked up) VNKRMSMVVSGLTPEEFMLVYKFARKHHITLTNLITEETTHVVMKTDAEFVCERTLKYFLGIAGGKWVVSYFWVTQSIKERKMLNEHDFEVRGDVVNGRNHQGPKRARESQDRKIFRGLEICCYGPFTNMPTDQLEWMVQLCDASVVKELSSFTLGTGVHPIVVVQPDAWTEDNGFHAIGQMCEAPVVTREWVLDSVALYQCQELDTYLIPQIPHSHY | ≤ 1.5 |  |
| BRCA1 BRCT L1664P (domain or fragment, UniProt P38398 1646-1863, looked up) VNKRMSMVVSGLTPEEFMPVYKFARKHHITLTNLITEETTHVVMKTDAEFVCERTLKYFLGIAGGKWVVSYFWVTQSIKERKMLNEHDFEVRGDVVNGRNHQGPKRARESQDRKIFRGLEICCYGPFTNMPTDQLEWMVQLCGASVVKELSSFTLGTGVHPIVVVQPDAWTEDNGFHAIGQMCEAPVVTREWVLDSVALYQCQELDTYLIPQIPHSHY | ~1.4 |  |
| BRCA1 BRCT M1652I (domain or fragment, UniProt P38398 1646-1863, looked up) VNKRMSIVVSGLTPEEFMLVYKFARKHHITLTNLITEETTHVVMKTDAEFVCERTLKYFLGIAGGKWVVSYFWVTQSIKERKMLNEHDFEVRGDVVNGRNHQGPKRARESQDRKIFRGLEICCYGPFTNMPTDQLEWMVQLCGASVVKELSSFTLGTGVHPIVVVQPDAWTEDNGFHAIGQMCEAPVVTREWVLDSVALYQCQELDTYLIPQIPHSHY | ~1.4 |  |
| BRCA1 BRCT D1692N (domain or fragment, UniProt P38398 1646-1863, looked up) VNKRMSMVVSGLTPEEFMLVYKFARKHHITLTNLITEETTHVVMKTNAEFVCERTLKYFLGIAGGKWVVSYFWVTQSIKERKMLNEHDFEVRGDVVNGRNHQGPKRARESQDRKIFRGLEICCYGPFTNMPTDQLEWMVQLCGASVVKELSSFTLGTGVHPIVVVQPDAWTEDNGFHAIGQMCEAPVVTREWVLDSVALYQCQELDTYLIPQIPHSHY | ~1.4 |  |
| BRCA1 BRCT D1778N (domain or fragment, UniProt P38398 1646-1863, looked up) VNKRMSMVVSGLTPEEFMLVYKFARKHHITLTNLITEETTHVVMKTDAEFVCERTLKYFLGIAGGKWVVSYFWVTQSIKERKMLNEHDFEVRGDVVNGRNHQGPKRARESQDRKIFRGLEICCYGPFTNMPTNQLEWMVQLCGASVVKELSSFTLGTGVHPIVVVQPDAWTEDNGFHAIGQMCEAPVVTREWVLDSVALYQCQELDTYLIPQIPHSHY |  | fold increase in affinity against wild type [1]: ~1.5 fold |
| BRCA1 BRCT V1736A (domain or fragment, UniProt P38398 1646-1863, looked up) VNKRMSMVVSGLTPEEFMLVYKFARKHHITLTNLITEETTHVVMKTDAEFVCERTLKYFLGIAGGKWVVSYFWVTQSIKERKMLNEHDFEARGDVVNGRNHQGPKRARESQDRKIFRGLEICCYGPFTNMPTDQLEWMVQLCGASVVKELSSFTLGTGVHPIVVVQPDAWTEDNGFHAIGQMCEAPVVTREWVLDSVALYQCQELDTYLIPQIPHSHY | ~5 |  |
| BRCA1 BRCT G1706A (domain or fragment, UniProt P38398 1646-1863, looked up) VNKRMSMVVSGLTPEEFMLVYKFARKHHITLTNLITEETTHVVMKTDAEFVCERTLKYFLAIAGGKWVVSYFWVTQSIKERKMLNEHDFEVRGDVVNGRNHQGPKRARESQDRKIFRGLEICCYGPFTNMPTDQLEWMVQLCGASVVKELSSFTLGTGVHPIVVVQPDAWTEDNGFHAIGQMCEAPVVTREWVLDSVALYQCQELDTYLIPQIPHSHY | ~1.4 |  |
| BRCA1 BRCT G1788V (domain or fragment, UniProt P38398 1646-1863, looked up) VNKRMSMVVSGLTPEEFMLVYKFARKHHITLTNLITEETTHVVMKTDAEFVCERTLKYFLGIAGGKWVVSYFWVTQSIKERKMLNEHDFEVRGDVVNGRNHQGPKRARESQDRKIFRGLEICCYGPFTNMPTDQLEWMVQLCVASVVKELSSFTLGTGVHPIVVVQPDAWTEDNGFHAIGQMCEAPVVTREWVLDSVALYQCQELDTYLIPQIPHSHY | ~1.4 |  |
| BRCA1 BRCT R1699W (domain or fragment, UniProt P38398 1646-1863, looked up) VNKRMSMVVSGLTPEEFMLVYKFARKHHITLTNLITEETTHVVMKTDAEFVCEWTLKYFLGIAGGKWVVSYFWVTQSIKERKMLNEHDFEVRGDVVNGRNHQGPKRARESQDRKIFRGLEICCYGPFTNMPTDQLEWMVQLCGASVVKELSSFTLGTGVHPIVVVQPDAWTEDNGFHAIGQMCEAPVVTREWVLDSVALYQCQELDTYLIPQIPHSHY | ~300 |  |

— article PMC2888420 (The Journal of Biological Chemistry, 2010)
